Among the data in article PMC3725402, “Evolution of the key alkaloid enzyme putrescine N-methyltransferase from spermidine synthase” (Frontiers in Plant Science, 2013) are Km values, retold here.

This data set has as its system NCCCCN. Put plainly: purified protein. To be noted: PMT activity, co-substrate SAM, 20 mM HEPES pH 8.0, 37°C, 2 mM DTT, 1 mM ascorbic acid.

Take “DsPMT (putrescine N-methyltransferase) (Datura stramonium; H108L)”: the Km (in general, the concentration of substrate that gives half-maximal velocity) stood at 3130 ± 732.59 µM.

“DsPMT (putrescine N-methyltransferase) (Datura stramonium)”: the Km came out at 190 ± 27.67 µM.
